For six molecules, Kd, koff and kon results are on record in patent publication US20260028403A1 (Zymeworks, published 2026).

To fix the notation:
B1: v37636 (trispecific antibody, human IgG1, lambda, L234A L235A)
heavy 1: QVQLVESGGGLVQPGGSLRLSCSVSGIDLSSNPMIWVRQAPGKGLQYIGIIDTDGSTYYADWAKGRFTISKDSTTVYLQINSPRAEDTAVYYCARRLHGSSNGYYDDLWGQGTLVTVSSGGGGSGGGGSGGGGSGGGGSDGQMTQSPSSVSASVGDRVTITCQASQSIYSYLSWYQQKPGQRPKLLIYKASTLASGVPSRFSGSGSGTDFTLTISSVQPEDFATYYCQQGYTVTNVDKNTFGGGTKVEIKGGGGSGEVQLVESGGGLVQPGGSLRLSCAASGVTFNYYGMSWIRQAPGKGLEWVASITSSGGRIYYPDSVKGRFTISRENTQKTLYLQMNSLRAEDTAVYYCTLDGRDGWVAYWGQGTLVTVSSASTKGPSVFPLAPSSKSTSGGTAALGCLVKDYFPEPVTVSWNSGALTSGVHTFPAVLQSSGLYSLSSVVTVPSSSLGTQTYICNVNHKPSNTKVDKKVEPKSCDKTHTCPPCPAPEAAGGPSVFLFPPKPKDTLMISRTPEVTCVVVSVSHEDPEVKFNWYVDGVEVHNAKTKPREEQYNSTYRVVSVLTVLHQDWLNGKEYKCKVSNKALPAPIEKTISKAKGQPREPQVYVYPPSRDELTKNQVSLTCLVKGFYPSDIAVEWESNGQPENNYKTTPPVLDSDGSFALVSKLTVDKSRWQQGNVFSCSVMHEALHNHYTQKSLSLSPGGGGGSGDIQMTQSPSSLSASVGDRVTITCRASESVEYYVTSLMQWYQQKPGKAPKLLIYAASNVDSGVPSRFSGSGSGTDFTLTISSLQPEDIATYYCQQSRKVPFTFGGGTKVEIKGGGGSGGGGSGGGGSGGGGSQVQLQESGPGLVKPSETLSLTCAVSGFSLTSYGVHWIRQPPGKGLEWLGVIWPGGGTNFNSALMSRLTISEDTSKNQVSLKLSSVTAADTAVYYCARDRAYGNYLYAMDYWGQGTLVTVSS
heavy 2: EPKSSDKTHTCPPCPAPEAAGGPSVFLFPPKPKDTLMISRTPEVTCVVVSVSHEDPEVKFNWYVDGVEVHNAKTKPREEQYNSTYRVVSVLTVLHQDWLNGKEYKCKVSNKALPAPIEKTISKAKGQPREPQVYVLPPSRDELTKNQVSLLCLVKGFYPSDIAVEWESNGQPENNYLTWPPVLDSDGSFFLYSKLTVDKSRWQQGNVFSCSVMHEALHNHYTQKSLSLSPG
light: NFMLTQPHSVSESPGKTVTISCKRNTGNIGSNYVNWYQQHEGSSPTTIIYRNDKRPDGVSDRFSGSIDRSSKSASLTISNLKTEDEADYFCQSYSSGFIFGGGTKLTVLGQPKAAPSVTLFPPSSEELQANKATLVCLISDFYPGAVTVAWKADSSPVKAGVETTTPSKQSNNKYAASSYLSLTPEQWKSHRSYSCQVTHEGSTVEKTVAPTECS
notes: second heavy chain is Fc only; Het Fc, FcKO; also called Cldn18.2xCD3xCD28 trispecific
B2: v37637 (trispecific antibody, human IgG1, lambda, L234A L235A)
heavy 1: not shown
heavy 2: QVQLVESGGGLVQPGGSLRLSCSVSGIDLSSNPMIWVRQAPGKGLQYIGIIDTDGSTYYADWAKGRFTISKDSTTVYLQINSPRAEDTAVYYCARRLHGSSNGYYDDLWGQGTLVTVSSGGGGSGGGGSGGGGSGGGGSDGQMTQSPSSVSASVGDRVTITCQASQSIYSYLSWYQQKPGQRPKLLIYKASTLASGVPSRFSGSGSGTDFTLTISSVQPEDFATYYCQQGYTVTNVDKNTFGGGTKVEIKGGGGSGEVQLVESGGGLVQPGGSLRLSCAASGVTFNYYGMSWIRQAPGKGLEWVASITSSGGRIYYPDSVKGRFTISRENTQKTLYLQMNSLRAEDTAVYYCTLDGRDGWVAYWGQGTLVTVSSASTKGPSVFPLAPSSKSTSGGTAALGCLVKDYFPEPVTVSWNSGALTSGVHTFPAVLQSSGLYSLSSVVTVPSSSLGTQTYICNVNHKPSNTKVDKKVEPKSCDKTHTCPPCPAPEAAGGPSVFLFPPKPKDTLMISRTPEVTCVVVSVSHEDPEVKFNWYVDGVEVHNAKTKPREEQYNSTYRVVSVLTVLHQDWLNGKEYKCKVSNKALPAPIEKTISKAKGQPREPQVYVLPPSRDELTKNQVSLLCLVKGFYPSDIAVEWESNGQPENNYLTWPPVLDSDGSFFLYSKLTVDKSRWQQGNVFSCSVMHEALHNHYTQKSLSLSPG
light: B1 light
notes: Het Fc, FcKO; also called Cldn18.2xCD3xCD28 trispecific
B3: v37669 (bispecific antibody)
heavy 1: EVQLVESGGGLVQPGGSLRLSCAASGVTFNYYGMSWIRQAPGKGLEWVASITSSGGRIYYPDSVKGRFTISRENTQKTLYLQMNSLRAEDTAVYYCTLDGRDGWVAYWGQGTLVTVSSASTKGPSVFPLAPSSKSTSGGTAALGCLVKDYFPEPVTVSWNSGALTSGVHTFPAVLQSSGLYSLSSVVTVPSSSLGTQTYICNVNHKPSNTKVDKKVEPKSCDKTHTCPPCPAPEAAGGPSVFLFPPKPKDTLMISRTPEVTCVVVSVSHEDPEVKFNWYVDGVEVHNAKTKPREEQYNSTYRVVSVLTVLHQDWLNGKEYKCKVSNKALPAPIEKTISKAKGQPREPQVYVYPPSRDELTKNQVSLTCLVKGFYPSDIAVEWESNGQPENNYKTTPPVLDSDGSFALVSKLTVDKSRWQQGNVFSCSVMHEALHNHYTQKSLSLSPGGGGGSGNFMLTQPHSVSESPGKTVTISCKRNTGNIGSNYVNWYQQHEGSSPTTIIYRNDKRPDGVSDRFSGSIDRSSKSASLTISNLKTEDEADYFCQSYSSGFIFGGGTKLTVLGGGGSGGGGSGGGGSGGGGSEVQLVESGGGLVQPGGSLRLSCAASGVTFNYYGMSWIRQAPGKGLEWVASITSSGGRIYYPDSVKGRFTISRENTQKTLYLQMNSLRAEDTAVYYCTLDGRDGWVAYWGQGTLVTVSS
heavy 2: QVQLVESGGGLVQPGGSLRLSCSVSGIDLSSNPMIWVRQAPGKGLQYIGIIDTDGSTYYADWAKGRFTISKDSTTVYLQINSPRAEDTAVYYCARRLHGSSNGYYDDLWGQGTLVTVSSGGGGSGGGGSGGGGSGGGGSDGQMTQSPSSVSASVGDRVTITCQASQSIYSYLSWYQQKPGQRPKLLIYKASTLASGVPSRFSGSGSGTDFTLTISSVQPEDFATYYCQQGYTVTNVDKNTFGGGTKVEIKAAEPKSSDKTHTCPPCPAPEAAGGPSVFLFPPKPKDTLMISRTPEVTCVVVSVSHEDPEVKFNWYVDGVEVHNAKTKPREEQYNSTYRVVSVLTVLHQDWLNGKEYKCKVSNKALPAPIEKTISKAKGQPREPQVYVLPPSRDELTKNQVSLLCLVKGFYPSDIAVEWESNGQPENNYLTWPPVLDSDGSFFLYSKLTVDKSRWQQGNVFSCSVMHEALHNHYTQKSLSLSPG
light: B1 light
notes: bivalent for CD3; also called 2x1 anti-(CD3xCD3xCLDN18.2) control
B4: v37639 (trispecific antibody, human IgG1, kappa, L234A L235A)
heavy 1: not shown
heavy 2: B3 heavy 2
light: DIQMTQSPSSLSASVGDRVTITCRASESVEYYVTSLMQWYQQKPGKAPKLLIYAASNVDSGVPSRFSGSGSGTDFTLTISSLQPEDIATYYCQQSRKVPFTFGGGTKVEIKRTVAAPSVFIFPPSDEQLKSGTASVVCLLNNFYPREAKVQWKVDNALQSGNSQESVTEQDSKDSTYSLSSTLTLSKADYEKHKVYACEVTHQGLSSPVTKSFNRGECGGGGSGNFMLTQPHSVSESPGKTVTISCKRNTGNIGSNYVNWYQQHEGSSPTTIIYRNDKRPDGVSDRFSGSIDRSSKSASLTISNLKTEDEADYFCQSYSSGFIFGGGTKLTVLGGGGSGGGGSGGGGSGGGGSEVQLVESGGGLVQPGGSLRLSCAASGVTFNYYGMSWIRQAPGKGLEWVASITSSGGRIYYPDSVKGRFTISRENTQKTLYLQMNSLRAEDTAVYYCTLDGRDGWVAYWGQGTLVTVSS
notes: Het Fc, FcKO; also called Cldn18.2xCD28xCD3 trispecific
B5: v37666 (bispecific antibody, human IgG1, kappa, L234A L235A)
heavy 1: not shown
heavy 2: B1 heavy 2
light: DIQMTQSPSSLSASVGDRVTITCRASESVEYYVTSLMQWYQQKPGKAPKLLIYAASNVDSGVPSRFSGSGSGTDFTLTISSLQPEDIATYYCQQSRKVPFTFGGGTKVEIKRTVAAPSVFIFPPSDEQLKSGTASVVCLLNNFYPREAKVQWKVDNALQSGNSQESVTEQDSKDSTYSLSSTLTLSKADYEKHKVYACEVTHQGLSSPVTKSFNRGEC
notes: Fc without paratope; also called anti-(CLDN18.2xCD28) bispecific control
B6: v37665 (bispecific antibody, human IgG1, kappa, L234A L235A)
heavy 1: not shown
heavy 2: B3 heavy 2
light: B5 light
notes: 13B08 VH-VL scFv); also called anti-(CLDN18.2xCD28) bispecific control

The target of one test is T1, Recombinant human CD3 epsilon/delta heterodimer, his tag protein (Acro Biosystems) (human, UniProt P07766 23-126; P04234 22-105).
T1 construct: bought
The experiment in a line: SPR Biacore T200, CD3 e/d-his on CM5, construct injected, 1:1 model.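 Note: measured at 25 °C in HEPES-buffered saline with EDTA and Tween 20 at pH 7.4, values are means of three independent runs.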
Experimental: All SPR binding experiments were carried out using a BiacoreT200 instrument at 25° C. with 10 mM HEPES, 150 mM NaCl, 3 mM EDTA, and 0.05% Tween 20 at pH 7.4. Recombinant human CD3 epsilon/delta heterodimer, his tag protein (Acro Biosystems) was covalently immobilized on CM5 sensor chips by amine coupling. Purified antibody constructs to be tested were indirectly captured on the sensor chip by binding to the recombinant CD3 protein when injected at 30 μL/min for 140-500 s following a dissociation for 600-1200 s. Resultant kₒₙ, koff and KD values were determined from fitting the sensorgrams using the 1:1 binding model with reported values as the mean of three independent runs.
One may read the Kd as the free concentration of one partner at which half of the binding sites on the other are occupied at equilibrium, for simple one-to-one binding. By koff is commonly meant the first-order rate constant of dissociation. What is called kon is a measure of how fast the partners come together. Consider B1, for which the Kd amounted to 160 nM, the koff stood at 0.021 s⁻¹ and the kon turned out to be 134000 M⁻¹ s⁻¹.
For the molecule B2, the Kd stood at 106 nM, the koff was determined as 0.0129 s⁻¹ and the kon is 121000 M⁻¹ s⁻¹.
For B3, the Kd is 4.38 nM, the koff was 0.00255 s⁻¹ and the kon worked out at 589000 M⁻¹ s⁻¹.
As for B4, the Kd amounted to 492 nM, the koff amounted to 0.0144 s⁻¹ and the kon came out at 29200 M⁻¹ s⁻¹.

The target of a further test is T2, Recombinant human/cynomolgus/rhesus macaque CD28 mouse IgG2a Fc fusion protein (Acro Biosystems) (human/cynomolgus/rhesus macaque, UniProt P10747 19-152).
T2 construct: bought; also called huCD28
The test can be described thus: SPR Biacore T200, CD28-mIgG2a Fc on CM5, construct injected, 1:1 model.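 Note: fc fusion captured by amine coupling, run at 25 °C in HEPES buffer pH 7.4, association 140-500 s then dissociation 600-1200 s, values averaged over three independent runs.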 A general note: SPR reads the build-up and loss of mass on a sensor chip optically.
Experimental: All SPR binding experiments were carried out using a BiacoreT200 instrument at 25° C. with 10 mM HEPES, 150 mM NaCl, 3 mM EDTA, and 0.05% Tween 20 at pH 7.4. Recombinant human/cynomolgus/rhesus macaque CD28 mouse IgG2a Fc fusion protein (Acro Biosystems) was covalently immobilized on CM5 sensor chips by amine coupling. Purified antibody constructs to be tested were injected on the sensor chip at 30 μL/min for 140-500 s following a dissociation for 600-1200 s. Resultant kₒₙ, koff and KD values were determined from fitting the sensorgrams using the 1:1 binding model with reported values as the mean of three independent runs.
B1: the Kd turned out to be 434 nM, the koff came out at 0.0132 s⁻¹ and the kon was 30400 M⁻¹ s⁻¹.
Regarding B2, the Kd stood at 61.4 nM, the koff was 0.00692 s⁻¹ and the kon turned out to be 113000 M⁻¹ s⁻¹.
With B5, the Kd came out at 32.4 nM, the koff was 0.00217 s⁻¹ and the kon was determined as 67300 M⁻¹ s⁻¹.
Turning to B4, the Kd was determined as 23.9 nM, the koff amounted to 0.00201 s⁻¹ and the kon amounted to 84100 M⁻¹ s⁻¹.
On to B6, for which the Kd turned out to be 25.1 nM, the off-rate constant (koff) turned out to be 0.00224 s⁻¹ and the kon was 89400 M⁻¹ s⁻¹.
